Data from patent publication US10829756B2, “Discovery of enzymes from the alpha-keto acid decarboxylase family” (priority 2015, dated 2020).

Experiments:
Test in all cases: Steady-state kinetics of 2-ketoacid decarboxylase (ADH/NADH coupled)
Format in all cases: biochemical
Settings in all cases: other: pH 7.5, 21° C.
[1] = substrate: CC(=O)C(=O)O
Description: (§1) FIG. 17: Depicts protein sequences of various 2-ketoacid decarboxylases (SEQ ID NOS:20-34). Protein Sequence 3FZN is SEQ ID NO: 20. Protein sequence 2VBI is SEQ ID NO: 21. Protein sequence 1ZPD is SEQ ID NO: 22. Protein sequence ZP_08570611 is SEQ ID NO: 23. Protein sequence YP_831380 is SEQ ID NO: 24. Protein sequence ZP_06547677 is SEQ ID NO: 25. Protein sequence 1OVM_P23234 is SEQ ID NO: 26. Protein sequence ZP_06418208 is SEQ ID NO: 27. Protein sequence ZP_07290467 is SEQ ID NO: 28. Protein sequence 2VBG is SEQ ID NO: 29. Protein sequence CAK95977 is SEQ ID NO: 30. Protein sequence ZP_07282849 is SEQ ID NO: 31. Protein sequence ZP_06846103 is SEQ ID NO: 32. Protein sequence ZP_04996569 is SEQ ID NO: 33. Protein sequence YP_381143 is SEQ ID NO: 34.
(§2) To evaluate if the integrative genomic mining approach enriches the mining for C8 activity, an additional set of previously characterized ketoacid decarboxylases diverse in sequence were experimentally characterized in an equivalent manner. […] The median C8 activity from the GEOs selected using the integrative genomic mining approach is 75-fold higher than the naively picked decarboxylases (Table 1, FIG. 4). This indicates the integrative genomic mining approach is effective in identifying functional enzymes that perform the desired reaction on C8.
(§3) For the native KIVD and KIVD_VLV mutant, 2 ml overnight cultures of XL1B cells were transformed with pQE9 containing N-terminal his-tagged KIVD enzymes and grown in Terrific Broth (BP biomedical, Cat#3046-042) with 50 μg/mL of carbenicillin. (Fisher scientific, Cat# BP2648-5) For the GEOs, 2 ml overnight cultures of BLR cells were transformed with pet29b+ plasmid containing N-terminal his-tagged GEOs, and grown in Terrific Broth with 50 μg/mL of kanamycin. (Fisher scientific, Cat# BP906-5) These cultures were diluted 1:1000 in 500 mL of Terrific Broth with 1 mM MgSO4, 1% glucose, and 50ug/mL of corresponding antibiotics, then grown at 37° C. for 24 hours. Cultures were pelleted down at 4700 rpm for 10 mins and resuspended in auto-induction media (LB broth, 1 mM MgSO4, 0.1 mM TPP, 1×NPS, and 1×5052) for induction at 18° C. for 34 hours. At the end of induction, cells were centrifuged (4700 rpm, 4° C., 20 minutes), supernatant was removed, and cells were resuspended in 40 mL lysis buffer (100 mM Hepes pH 7.5, 100 mM NaCl, 10% glycerol, 0.1 mM TPP, 1 mM MgSO4, 10 mM Imidazole, 1 mM TCEP) and 1 mM PMSF) and sonicated for 2 minutes. Lysed cells were centrifuged at 4700 rpm at 4° C. for 60 mins to remove cell debris. Supernatant was loaded on gravity flow column with 700 μl of cobalt slurry (Fisher scientific, CAT# PI-90091) washed with 10 ml of wash buffer (100 mM Hepes pH 7.5, 100 mM NaCl, 10% glycerol, 0.1 mM TPP, 1 mM MgSO4, 10 mM Imidazole, and 1 mM TCEP). Cobalt bead bed was washed with 15 ml of wash buffer 5 times and proteins were eluted with 1000 μl of elution buffer (100 mM Hepes pH 7.5, 100 mM NaCl, 10% glycerol, 0.1 mM TPP, 1 mM MgSO4, 200 mM Imidazole, and 1 mM TCEP). Protein samples were immediately buffer exchanged with spin concentrators (Satorius, CAT# VS0112) into storage buffer (100 mM Hepes pH 7.5, 100 mM NaCl, 10% glycerol, 0.1 mM TPP, 1 mM MgSO4, and 1 mM TCEP) and stored at 4° C. until kinetics characterization. Protein concentrations were determined using a Synergy H1 spectrophotometer (Biotek) by measuring absorbance at 280 nm using their calculated extinction coefficients with ExPASy ProtParam Tool.^33 All other buffers and salts were purchased from Fisher Scientific unless otherwise specified.
(§4) The kcat and KM values of selective KIVD mutants were measured for the substrates: C3, C5, isoC5, and C8. All substrates were dissolved in MilliQ H2O and pH was adjusted to 7.5 as necessary. Activity was measured at 0.005 mM to 10 mM substrates. The assay was performed in a 96-well half-area plate. […]

[2] = substrate: CCCC(=O)C(=O)O
Description: as §1, §2, §3, §4

[3] = substrate: CCCCCCC(=O)C(=O)O
Description: as §1, §2, §3, §4

[4] = substrate: CC(C)C(=O)C(=O)O
Description: as §2
For the native KIVD and KIVD_VLV mutant, 2 ml overnight cultures of XL1B cells were transformed with pQE9 containing N-terminal his-tagged KIVD enzymes and grown in Terrific Broth (BP biomedical, Cat#3046-042) with 50 μg/mL of carbenicillin. […] Protein concentrations were determined using a Synergy H1 spectrophotometer (Biotek) by measuring absorbance at 280 nm using their calculated extinction coefficients with ExPASy ProtParam Tool.^33 All other buffers and salts were purchased from Fisher Scientific unless otherwise specified.
The kcat and KM values of selective KIVD mutants were measured for the substrates: C3, C5, isoC5, and C8. […] Activity was measured at 0.005 mM to 10 mM substrates. […] Absorbance readings were taken every 1-minute at OD340 at 21° C. for 60 minutes using the Synergy H1. […]

[5] = substrate: CC(C)C(=O)C(=O)O; remark: listed apart in the source
Description: as §1, §2, §3, §4

B1: 1ZPD, ketoacid decarboxylase, SEQ ID NO: 22 (Zymomonas mobilis subsp. mobilis ZM4 = ATCC 31821) (protein)
chain: MSYTVGTYLAERLVQIGLKHHFAVAGDYNLVLLDNLLLNKNMEQVYCCNELNCGFSAEGYARAKGAAAAVVTYSVGALSAFDAIGGAYAENLPVILISGAPNNNDHAAGHVLHHALGKTDYHYQLEMAKNITAAAEAIYTPEEAPAKIDHVIKTALREKKPVYLEIACNIASMPCAAPGPASALFNDEASDEASLNAAVDETLKFIANRDKVAVLVGSKLRAAGAEEAAVKFTDALGGAVATMAAAKSFFPEENALYIGTSWGEVSYPGVEKTMKEADAVIALAPVFNDYSTTGWTDIPDPKKLVLAEPRSVVVNGIRFPSVHLKDYLTRLAQKVSKKTGSLDFFKSLNAGELKKAAPADPSAPLVNAEIARQVEALLTPNTTVIAETGDSWFNAQRMKLPNGARVEYEMQWGHIGWSVPAAFGYAVGAPERRNILMVGDGSFQLTAQEVAQMVRLKLPVIIFLINNYGYTIEVMIHDGPYNNIKNWDYAGLMEVFNGNGGYDSGAAKGLKAKTGGELAEAIKVALANTDGPTLIECFIGREDCTEELVKWGKRVAAANSRKPVNKVVGSTENLYFQSGALE
Km [1]: 5.7 ± 0.3 mM | kcat [1]: 46.7 ± 1.4 s⁻¹ | kcat/Km [1]: 8200 ± 545 M⁻¹ s⁻¹ | Km [2]: 7.1 ± 0.3 mM | kcat [2]: 0.95 ± 0.02 s⁻¹ | kcat/Km [2]: 140 ± 5.6 M⁻¹ s⁻¹ | Km [3]: 1.2 ± 0.1 mM | kcat [3]: 0.021 ± 0.001 s⁻¹ | kcat/Km [3]: 19 ± 2 M⁻¹ s⁻¹

B2: 1OZF, ketoacid decarboxylase (Klebsiella pneumoniae) (protein)
chain: MDKQYPVRQWAHGADLVVSQLEAQGVRQVFGIPGAKIDKVFDSLLDSSIRIIPVRHEANAAFMAAAVGRITGKAGVALVTSGPGCSNLITGMATANSEGDPVVALGGAVKRADKAKQVHQSMDTVAMFSPVTKYAIEVTAPDALAEVVSNAFRAAEQGRPGSAFVSLPQDVVDGPVSGKVLPASGAPQMGAAPDDAIDQVAKLIAQAKNPIFLLGLMASQPENSKALRRLLETSHIPVTSTYQAAGAVNQDNFSRFAGRVGLFNNQAGDRLLQLADLVICIGYSPVEYEPAMWNSGNATLVHIDVLPAYEERNYTPDVELVGDIAGTLNKLAQNIDHRLVLSPQAAEILRDRQHQRELLDRRGAQLNQFALHPLRIVRAMQDIVNSDVTLTVDMGSFHIWIARYLYTFRARQVMISNGQQTMGVALPWAIGAWLVNPERKVVSVSGDGGFLQSSMELETAVRLKANVLHLIWVDNGYNMVAIQEEKKYQRLSGVEFGPMDFKAYAESFGAKGFAVESAEALEPTLRAAMDVDGPAVVAIPVDYRDNPLLMGQLHLSQIL
Km [4]: 1.8 ± 0.1 mM | kcat [4]: 0.03 ± 0.001 s⁻¹

B3: 3FZN, ketoacid decarboxylase, SEQ ID NO: 20 (Pseudomonas putida) (protein)
chain: MASVHGTTYELLRRQGIDTVFGNPGSNELPFLKDFPEDFRYILALQEACVVGIADGYAQASRKPAFINLHSAAGTGNAMGALSNAWNSHSPLIVTAGQQTRAMIGVEALLTNVDAANLPRPLVKWSYEPASAAEVPHAMSRAIHMASMAPQGPVYLSVPYDDWDKDADPQSHHLFDRHVSSSVRLNDQDLDILVKALNSASNPAIVLGPDVDAANANADCVMLAERLKAPVWVAPSAPRCPFPTRHPCFRGLMPAGIAAISQLLEGHDVVLVIGAPVFRYHQYDPGQYLKPGTRLISVTCDPLEAARAPMGDAIVADIGAMASALANLVEESSRQLPTAAPEPAKVDQDAGRLHPETVFDTLNDMAPENAIYLNESTSTTAQMWQRLNMRNPGSYYFCAAGGLGFALPAAIGVQLAEPERQVIAVIGDGSANYSISALWTAAQYNIPTIFVIMNNGTYGALRWFAGVLEAENVPGLDVPGIDFRALAKGYGVQALKADNLEQLKGSLQEALSAKGPVLIEVSTVSPVKGSTENLYFQSGALE
Km [5]: 4.9 ± 0.3 mM | kcat [5]: 0.52 ± 0.02 s⁻¹ | Km [2]: 2.7 ± 0.2 mM | kcat [2]: 4.7 ± 0.1 s⁻¹ | Km [3]: 3.8 ± 0.3 mM | kcat [3]: 1.3 ± 0.1 s⁻¹
